Source: patent publication US20060121465A1, “Sgk and nedd used as diagnostic and therapeutic targets” (priority 2002, published 2006)

Biological target: T1, Sglt1 (Homo sapiens, UniProt P13866)
T1 construct: expressed in transfected cells; host or cells: Xenopus laevis oocytes injected with in vitro synthesized cRNA
T1 sequence (P13866 1-664): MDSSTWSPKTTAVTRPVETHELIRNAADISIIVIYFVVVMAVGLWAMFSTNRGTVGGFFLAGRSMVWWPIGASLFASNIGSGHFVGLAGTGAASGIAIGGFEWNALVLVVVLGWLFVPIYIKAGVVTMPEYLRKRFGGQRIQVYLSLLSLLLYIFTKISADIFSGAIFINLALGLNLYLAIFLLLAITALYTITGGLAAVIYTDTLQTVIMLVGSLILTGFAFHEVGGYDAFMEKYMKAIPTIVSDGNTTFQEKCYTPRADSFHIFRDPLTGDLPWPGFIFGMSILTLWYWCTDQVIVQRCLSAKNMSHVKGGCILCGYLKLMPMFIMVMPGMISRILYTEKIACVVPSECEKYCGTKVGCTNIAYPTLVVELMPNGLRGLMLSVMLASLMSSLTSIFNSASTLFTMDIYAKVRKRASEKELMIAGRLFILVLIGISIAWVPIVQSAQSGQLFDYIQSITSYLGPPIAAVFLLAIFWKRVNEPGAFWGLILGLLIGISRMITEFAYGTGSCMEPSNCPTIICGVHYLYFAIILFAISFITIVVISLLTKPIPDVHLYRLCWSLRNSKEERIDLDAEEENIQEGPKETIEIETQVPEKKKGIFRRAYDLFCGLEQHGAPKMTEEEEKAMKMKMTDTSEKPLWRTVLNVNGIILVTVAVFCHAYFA
Experiment: Two-electrode voltage clamp of glucose-induced currents in Xenopus laevis oocytes expressing Sglt1
Type: cell-based
Details: for stimulation of glucose transport by additional coexpression: further series of experiments (FIG. 5); for effect on currents induced by glucose (in words): oocytes expressing Sglt1
Text: cRNAs encoding wild-type Sgk1 [Waldegger S, Barth P, Raber G, Lang F: Cloning and characterization of a putative human serine/threonine protein kinase transcriptionally modified during anisotonic and isotonic alterations of cell volume. […] Biochem J. 1999; 339: 319-28], wild-type Sgk3 and PKB [Kobayashi T, Deak M, Morrice N, Cohen P. Characterization of the structure and regulation of two novel isoforms of serum- and glucocorticoid-induced protein kinase. Biochem J. 1999; 334: 189-97], consitutively active ^T308D,S473DPKB [Alessi D R, Cohen P. Mechanism of activation and function of protein kinase B. Curr. Opin Genet Dev. 1998; 8: 55-62], wild-type Nedd4-2 [Debonneville C, Flores S Y, Kamynina E, Plant P J, Tauxe C, Thomas M A, Munster C, Chraibi A, Pratt J H, Horisberger J D, Pearce D, Loffing J, Staub O. Phosphorylation of Nedd4-2 by Sgk1 regulates epithelial Na(+) channel cell surface expression. EMBO J. 2001; 20: 7052-7059] and wild-type Sglt1 [Hediger M A, Coady M J, Ikeda T S, Wright E M. Expression cloning and cDNA sequencing of the Na^+/glucose co-transporter. Nature. 1987; 330: 379-381] were synthesized in vitro [Wagner C A, Friedrich B, Setiawan I, Lang F, Bröer S: The use of Xenopus laevis oocytes for the functional characterization of heterologously expressed membrane proteins. Cell Physiol Biochem 2000; 10: 1-12]. Dissection of the Xenopus laevis ovaries, and collection and treatment of the oocytes, have already been described in detail [Wagner C A, Friedrich B, Setiawan I, Lang F, Broer S: The use of Xenopus laevis oocytes for the functional characterization of heterologously expressed membrane proteins. Cell Physiol Biochem 2000; 10: 1-12]. The oocytes were injected with 5 ng of human sglt1, 7.5 ng of human sgk1, ^K127Nsgk1, ^S422Dsgk1, sgk3, PKB or ^T308D,S473DPKB, and/or with 5 ng of Xenopus nedd4-2. Control oocytes were injected with water. Electrophysiological experiments were carried out at room temperature for 3 days after the respective cRNAs had been injected. The currents which were induced by the extracellular administration of 20 mM or 5 mM glucose were measured using a two-electrode voltage clamp [Wagner C A, Friedrich B, Setiawan I, Lang F, Broer S: The use of Xenopus laevis oocytes for the functional characterization of heterologously expressed membrane proteins. Cell Physiol Biochem 2000; 10: 1-12] and taken as a measure of the glucose transport. The data were filtered at 10 Hz and analyzed using a MacLab Digital to Analog Converter and corresponding software (AD Instruments, Castle Hill, Australia). The control bath solution (ND 96) contained 96 mM NaCl, 2 mM KCl, 1.8 mM CaCl2, 1 mM MgCl2 and 5 mM HEPES, pH 7.4. All the substances were used at the stated concentrations. The final solutions were titrated with HCl or NaOH to the stated pH or pH 7.4. The flow rate of the superfusion solution was 20 ml/min and achieved complete change of solution within 10 s.
For the calculations, the data were quoted as arithmetic means±SEM. n is the number of oocytes investigated. All the experiments were carried out in at least three different groups of oocytes. Qualitatively similar data were obtained in all the repeats. The results were tested for significant differences using Student's t test. Only results giving P<0.05 were made use of as being statistically significant.

[1] = coexpressed with Sglt1 and Nedd4-2
[2] = further series of experiments (FIG. 5, procedure as in FIG. 4), coexpressed with Sglt1
[3] = 20 mM glucose, coexpressed with Sglt1, increase vs oocytes expressing Sglt1 on its own
[4] = 20 mM glucose, coexpressed with Sglt1 and Nedd4-2
[5] = 5 mM glucose, coexpressed with Sglt1 and Nedd4-2
[6] = 5 mM glucose, coexpressed with Sglt1 (FIG. 4)

| Molecule | stimulation of glucose transport by additional coexpression [1] | glucose-induced current increased by coexpression [2] | glucose-induced current increased by coexpression [3] [%] | glucose-induced current higher than in oocytes expressing Sglt1 on its own [4] [%] | effect on currents induced by glucose (in words) (20 mM glucose, figure legends) | also measured |
| --- | --- | --- | --- | --- | --- | --- |
| PKB: wild-type protein kinase B, expressed from injected cRNA | 107±20% | 101±18% |  |  |  |  |
| ^T308D,S473DPKB: constitutively active protein kinase B mutant, expressed from injected cRNA |  |  | 117.4±15.8 | 106.5±18.2 | stimulated the currents and reversed the effect of Nedd4-2 |  |
| Sgk1: wild-type serum- and glucocorticoid-dependent kinase 1, expressed from injected human sgk1 cRNA (protein, UniProt O00141 1-431, looked up) Serine/threonine-protein …: MTVKTEAAKGTLTYSRMRGMVAILIAFMKQRRMGLNDFIQKIANNSYACKHPEVQSILKISQPQEPELMNANPSPPPSPSQQINLGPSSNPHAKPSDFHFLKVIGKGSFGKVLLARHKAEEVFYAVKVLQKKAILKKKEEKHIMSERNVLLKNVKHPFLVGLHFSFQTADKLYFVLDYINGGELFYHLQRERCFLEPRARFYAAEIASALGYLHSLNIVYRDLKPENILLDSQGHIVLTDFGLCKENIEHNSTTSTFCGTPEYLAPEVLHKQPYDRTVDWWCLGAVLYEMLYGLPPFYSRNTAEMYDNILNKPLQLKPNITNSARHLLEGLLQKDRTKRLGAKDDFMEIKSHVFFSLINWDDLINKKITPPFNPNVSGPNDLRHFDPEFTEEPVPNSIGKSPDSVLVTASVKEAAEAFLGFSYAPPTDSFL |  |  | 81.3±19.0 | 34.8±11.8 | stimulated the currents and reversed the effect of Nedd4-2 | glucose-induced current more than in oocytes injected with Sglt1 and Nedd4-2 mRNA [5]: 126±23%; glucose-induced current more than in oocytes only injected with Sglt1 [5]: 61±21%; glucose-induced current (5 mM glucose, coexpressed with Sglt1 and Nedd4-2 (FIG. 4)): 60.5±9.9 nA |
| ^S422DSgk1: constitutively active Sgk1 mutant (serine 422 to aspartate), expressed from injected cRNA (protein, UniProt O00141 1-431, looked up, variant S422D) Serine/threonine-protein …: MTVKTEAAKGTLTYSRMRGMVAILIAFMKQRRMGLNDFIQKIANNSYACKHPEVQSILKISQPQEPELMNANPSPPPSPSQQINLGPSSNPHAKPSDFHFLKVIGKGSFGKVLLARHKAEEVFYAVKVLQKKAILKKKEEKHIMSERNVLLKNVKHPFLVGLHFSFQTADKLYFVLDYINGGELFYHLQRERCFLEPRARFYAAEIASALGYLHSLNIVYRDLKPENILLDSQGHIVLTDFGLCKENIEHNSTTSTFCGTPEYLAPEVLHKQPYDRTVDWWCLGAVLYEMLYGLPPFYSRNTAEMYDNILNKPLQLKPNITNSARHLLEGLLQKDRTKRLGAKDDFMEIKSHVFFSLINWDDLINKKITPPFNPNVSGPNDLRHFDPEFTEEPVPNSIGKSPDSVLVTASVKEAAEAFLGFDYAPPTDSFL | 48±11% | 55±12% | 72.4±9.1 | 59.2±19.8 | stimulated the currents and reversed the effect of Nedd4-2 | glucose-induced current (Iglc) [6]: 65.4±10.6 nA; increase of Iglc by coexpression [6]: 77±23%; effect on currents induced by glucose (in words) (5 mmol glucose, FIG. 4 legend): significantly increased |
| Sgk3: wild-type Sgk isoform 3, expressed from injected cRNA (protein, UniProt Q96BR1 1-496, looked up) Serine/threonine-protein …: MQRDHTMDYKESCPSVSIPSSDEHREKKKRFTVYKVLVSVGRSEWFVFRRYAEFDKLYNTLKKQFPAMALKIPAKRIFGDNFDPDFIKQRRAGLNEFIQNLVRYPELYNHPDVRAFLQMDSPKHQSDPSEDEDERSSQKLHSTSQNINLGPSGNPHAKPTDFDFLKVIGKGSFGKVLLAKRKLDGKFYAVKVLQKKIVLNRKEQKHIMAERNVLLKNVKHPFLVGLHYSFQTTEKLYFVLDFVNGGELFFHLQRERSFPEHRARFYAAEIASALGYLHSIKIVYRDLKPENILLDSVGHVVLTDFGLCKEGIAISDTTTTFCGTPEYLAPEVIRKQPYDNTVDWWCLGAVLYEMLYGLPPFYCRDVAEMYDNILHKPLSLRPGVSLTAWSILEELLEKDRQNRLGAKEDFLEIQNHPFFESLSWADLVQKKIPPPFNPNVAGPDDIRNFDTAFTEETVPYSVCVSSDYSIVNASVLEADDAFVGFSYAPPSEDLFL | 114±26% | 117±16% | 123.6±15.0 | 112.4±19.4 | stimulated the currents and reversed the effect of Nedd4-2 |  |
| ^K127NSgk1: inactive Sgk1 mutant, expressed from injected cRNA (protein, UniProt O00141 1-431, looked up, variant K127N) Serine/threonine-protein …: MTVKTEAAKGTLTYSRMRGMVAILIAFMKQRRMGLNDFIQKIANNSYACKHPEVQSILKISQPQEPELMNANPSPPPSPSQQINLGPSSNPHAKPSDFHFLKVIGKGSFGKVLLARHKAEEVFYAVNVLQKKAILKKKEEKHIMSERNVLLKNVKHPFLVGLHFSFQTADKLYFVLDYINGGELFYHLQRERCFLEPRARFYAAEIASALGYLHSLNIVYRDLKPENILLDSQGHIVLTDFGLCKENIEHNSTTSTFCGTPEYLAPEVLHKQPYDRTVDWWCLGAVLYEMLYGLPPFYSRNTAEMYDNILNKPLQLKPNITNSARHLLEGLLQKDRTKRLGAKDDFMEIKSHVFFSLINWDDLINKKITPPFNPNVSGPNDLRHFDPEFTEEPVPNSIGKSPDSVLVTASVKEAAEAFLGFSYAPPTDSFL |  |  |  |  |  | change of substrate-induced current (20 mM glucose, coexpressed with Sglt1, signed change vs Sglt1 alone): −2.0±5.3%; glucose-induced current lower than in oocytes expressing Sglt1 on its own [4]: 54.9±9.7% |
| Sgk2: isoform of Sgk, coexpressed in oocytes (protein, UniProt Q9HBY8 1-367, looked up) Serine/threonine-protein …: MNSSPAGTPSPQPSRANGNINLGPSANPNAQPTDFDFLKVIGKGNYGKVLLAKRKSDGAFYAVKVLQKKSILKKKEQSHIMAERSVLLKNVRHPFLVGLRYSFQTPEKLYFVLDYVNGGELFFHLQRERRFLEPRARFYAAEVASAIGYLHSLNIIYRDLKPENILLDCQGHVVLTDFGLCKEGVEPEDTTSTFCGTPEYLAPEVLRKEPYDRAVDWWCLGAVLYEMLHGLPPFYSQDVSQMYENILHQPLQIPGGRTVAACDLLQSLLHKDQRQRLGSKADFLEIKNHVFFSPINWDDLYHKRLTPPFNPNVTGPADLKHFDPEFTQEAVSKSIGCTPDTVASSSGASSAFLGFSYAPEDDDILDC | no significant effect | no statistically significant effect |  |  |  |  |
